From patent US20230181718A1

Target: Endo-H treated SApNPs
Experiment: BLI, Octet RED96; Endo-H treated against wildtype SApNPs

Substance: VRC01 (antibody)
- fold higher binding than the wildtype SApNPs: 2 to 3.5 fold
